Here are results for 1 protein from patent US20260078420A1.

Substrate in the data set: OC[C@H]1O[C@@H](O[C@H]2C(O)O[C@H](CO)[C@@H](O)[C@@H]2O)[C@H](O)[C@@H](O)[C@@H]1O
Put plainly: purified protein, by the assay type. As to conditions: other: sophorose substrate; Gawronski phosphate release assay; 37.0 °C.

B1: Rhizobium tropici β-1,2-glucan phosphorylase (RtSOGP, B6), wild type, SEQ ID NO: 11 (Martinezella tropici) (protein)
chain: MSSGTNRSFQTPRREELGLITLSNTAGLSASALPNGTLFSIDFADQQGGVMINQVLGSPVYGGIGRLYLRIGGAKPATAEIVGPKAAVQFGHGKSGFSWSGETAGVKHTISLRLHPNKTAWFWQVSLENSSNATLSADLVLVQDVGLGDRGFLMNSEAYASQYIDHHIADHSAFGPVIMVRQNLKQGGGRNPWLAQGCLEGAAAYATDAIQLLVPSKGNDGVMVPDFGTSLPSARRQHEVACPTIQSKPLALAAGAKATTTFFGLFIADHPAASSDADLAHLDGLPALQSELAAETISAGQPVRSLLQDAPLAESDDLDQAALDALYPRRMLEEHADGKLLSFFVPDGPHNRHIVLREKERLVARRHGAIVRSGQNMLLDDQTLAATCWMQGIFAAQLTIGNTSFHKLFSVSRDPYNLTRSSGLRILVDLGDGWRLLGVPAAFEMGLSDTRWIYRLPGRTIIVSAIASGDDPAMQWSVSVEGAACRFLVFGQIVLGERDYEAVANIAVDTAGKRISFQPQPSWLWDRYPKAGYHLVTSTPDAFEAIGGDELLYSDSTARNGPFIALKSHPTKALRFAVTGSMTDAQAAEALAARYTTGVESEEMLAPARRFWSHVTRGARIEGDGRDVAAQAVMLPWIAHDAIVHLSVPHGLEQYTGAAWGTRDVCQGPIEFLLAYEHDEEVRQILLTLFSEQYRDRGDWPQWFMLEPYANIRAGEAHGDIVVWPLKALCDYIEATGDIAFLAKTVPWRADDTMQLTSEHATISDHIEKLLDTVRSRFVPGTSLIRYGEGDWNDSLQPADPHLRDWMVSSWTVSLLYEQLVRYANILTLANRNDEAQSLQATAVAMRADFNRLLMRDGIVAGYGVFDPSHDGVELLLHPEDTRTGLHYSLIAMTQPMIGGLFAPEQRHAHMKIIRANLLFPDGVRLMEKPATYSGGPEKLFRRAESSSFFGREIGLMYVHAHLRYCEALALDDDAEAVWAALALANPIAVSGRVEHASLRQRNTYFSSSDAAFEDRYQASAEWTRVKAGDIAVDGGWRIYSSGPGLYTKSLIGNVFGFKRQFGQRIRKPLLPASIGACEVKLDFKA
For B1, the Km is 70 µM, the Vmax was 24 µmol/min/mg, the kcat was 50 s⁻¹ and the specificity constant (kcat/Km) turned out to be 717000 M⁻¹ s⁻¹.

For orientation: Km means the substrate concentration at which the rate is half of its maximum. A word on the Vmax: it is the rate approached at saturating substrate. The kcat is the maximal rate divided by the concentration of active sites. Usually kcat/Km stands for the turnover number divided by the Michaelis constant.
